Target: hexon protein of recombinant chimpanzee adenovirus C68 (AdC68), free hexon trimer (AEX-HPLC "impurity" peak) (chimpanzee adenovirus C68)
Test: native MS; native SEC-HPLC/MS of the AEX-HPLC "impurity" fraction; BEH SEC 200Å column, isocratic 40 mM ammonium formate, 25°C; Orbitrap EMR, gentle source parameters to keep non-covalent complexes assembled

hexon protein of recombinant chimpanzee adenovirus C68 (AdC68), free hexon trimer (AEX-HPLC "impurity" peak) (natural protein)
stoichiometry N: 3

— publication PMC9017566
